According to patent publication US20260176319A1 (KALLYOPE, published 2026):
Starred links: 1 amine or outer side, 2 acyl side, 3 side chain; linkers in the order of their positions; H or OH if unused. Non-standard residues stand in square brackets, D forms with d. No end group written: not given here. *: point of attachment. C20 diacid = O=C(O)CCCCCCCCCCCCCCCCCCC(=O)*; d(γGlu) = O=C(O)[C@@H](CCC(=O)[*:2])N[*:1]; C18 diacid = O=C(O)CCCCCCCCCCCCCCCCC(=O)*; γGlu = O=C(O)[C@H](CCC(=O)[*:2])N[*:1]; Palmitoyl = CCCCCCCCCCCCCCCC(=O)*; 3Pal = N[C@@H](Cc1cccnc1)C(=O)O; Nle = CCCC[C@H](N)C(=O)O; AEEA = NCCOCCOCC(=O)O; Aib = CC(C)(N)C(=O)O; βAla = NCCC(=O)O

molecular target: human GRP receptor (human, UniProt P30550 1-384); experiment: cell-based or functional assay
Sequence (P30550 whole entry): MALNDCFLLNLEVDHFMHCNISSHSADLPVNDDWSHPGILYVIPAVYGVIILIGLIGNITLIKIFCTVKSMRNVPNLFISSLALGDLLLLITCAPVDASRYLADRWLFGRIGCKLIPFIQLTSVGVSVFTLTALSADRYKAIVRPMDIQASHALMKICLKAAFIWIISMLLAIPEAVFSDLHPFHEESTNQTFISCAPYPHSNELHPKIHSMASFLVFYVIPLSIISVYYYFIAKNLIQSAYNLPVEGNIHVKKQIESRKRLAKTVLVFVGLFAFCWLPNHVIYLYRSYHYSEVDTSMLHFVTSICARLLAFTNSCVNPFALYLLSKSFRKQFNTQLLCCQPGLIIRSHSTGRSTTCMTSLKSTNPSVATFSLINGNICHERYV

Binder	hIP1 GRPR EC50
Palmitoyl-[d(γGlu)][AEEA][AEEA]GNHW[Aib]V[dA]HL[Nle]-NH2 (SMILES CCCCCCCCCCCCCCCC(=O)N[C@H](CCC(=O)NCCOCCOCC(=O)NCCOCCOCC(=O)NCC(=O)N[C@@H](CC(N)=O)C(=O)N[C@@H](Cc1c[nH]cn1)C(=O)N[C@@H](Cc1c[nH]c2ccccc12)C(=O)NC(C)(C)C(=O)N[C@H](C(=O)N[C@H](C)C(=O)N[C@@H](Cc1c[nH]cn1)C(=O)N[C@@H](CC(C)C)C(=O)N[C@@H](CCCC)C(N)=O)C(C)C)C(=O)O) [Peptide 11]	3.2 nM
{C18 diacid}-[γGlu][AEEA][AEEA]RRHWAV[dA]HL[Nle]-NH2 (SMILES CCCC[C@H](NC(=O)[C@H](CC(C)C)NC(=O)[C@H](Cc1c[nH]cn1)NC(=O)[C@@H](C)NC(=O)[C@@H](NC(=O)[C@H](C)NC(=O)[C@H](Cc1c[nH]c2ccccc12)NC(=O)[C@H](Cc1c[nH]cn1)NC(=O)[C@H](CCCNC(=N)N)NC(=O)[C@H](CCCNC(=N)N)NC(=O)COCCOCCNC(=O)COCCOCCNC(=O)CC[C@H](NC(=O)CCCCCCCCCCCCCCCCC(=O)O)C(=O)O)C(C)C)C(N)=O) [Peptide 141]	7.72 nM
{C18 diacid}-[γGlu][AEEA][AEEA]GNHWAV[βAla]HL[Nle]-NH2 (SMILES CCCC[C@H](NC(=O)[C@H](CC(C)C)NC(=O)[C@H](Cc1c[nH]cn1)NC(=O)CCNC(=O)[C@@H](NC(=O)[C@H](C)NC(=O)[C@H](Cc1c[nH]c2ccccc12)NC(=O)[C@H](Cc1c[nH]cn1)NC(=O)[C@H](CC(N)=O)NC(=O)CNC(=O)COCCOCCNC(=O)COCCOCCNC(=O)CC[C@H](NC(=O)CCCCCCCCCCCCCCCCC(=O)O)C(=O)O)C(C)C)C(N)=O) [Peptide 142]	3.55 nM
{C18 diacid}-[γGlu][AEEA][AEEA][dF]NHWAV[dA]HL[Nle]-NH2 (SMILES CCCC[C@H](NC(=O)[C@H](CC(C)C)NC(=O)[C@H](Cc1c[nH]cn1)NC(=O)[C@@H](C)NC(=O)[C@@H](NC(=O)[C@H](C)NC(=O)[C@H](Cc1c[nH]c2ccccc12)NC(=O)[C@H](Cc1c[nH]cn1)NC(=O)[C@H](CC(N)=O)NC(=O)[C@@H](Cc1ccccc1)NC(=O)COCCOCCNC(=O)COCCOCCNC(=O)CC[C@H](NC(=O)CCCCCCCCCCCCCCCCC(=O)O)C(=O)O)C(C)C)C(N)=O) [Peptide 143]	10.7 nM
{C18 diacid}-[γGlu][AEEA][AEEA]FN[3Pal]WAV[βAla]HL[Nle]-NH2 (SMILES CCCC[C@H](NC(=O)[C@H](CC(C)C)NC(=O)[C@H](Cc1c[nH]cn1)NC(=O)CCNC(=O)[C@@H](NC(=O)[C@H](C)NC(=O)[C@H](Cc1c[nH]c2ccccc12)NC(=O)[C@H](Cc1cccnc1)NC(=O)[C@H](CC(N)=O)NC(=O)[C@H](Cc1ccccc1)NC(=O)COCCOCCNC(=O)COCCOCCNC(=O)CC[C@H](NC(=O)CCCCCCCCCCCCCCCCC(=O)O)C(=O)O)C(C)C)C(N)=O) [Peptide 144]	5.99 nM
{C18 diacid}-[γGlu][AEEA][AEEA]RNHWAV[dA]HL[Nle]-NH2 (SMILES CCCC[C@H](NC(=O)[C@H](CC(C)C)NC(=O)[C@H](Cc1c[nH]cn1)NC(=O)[C@@H](C)NC(=O)[C@@H](NC(=O)[C@H](C)NC(=O)[C@H](Cc1c[nH]c2ccccc12)NC(=O)[C@H](Cc1c[nH]cn1)NC(=O)[C@H](CC(N)=O)NC(=O)[C@H](CCCNC(=N)N)NC(=O)COCCOCCNC(=O)COCCOCCNC(=O)CC[C@H](NC(=O)CCCCCCCCCCCCCCCCC(=O)O)C(=O)O)C(C)C)C(N)=O) [Peptide 145]	5.2 nM
{C18 diacid}-[γGlu][AEEA][AEEA]GNHWAV[dA]HL[Nle] [Peptide 146]	279 nM
{C18 diacid}-[γGlu][AEEA][AEEA]GQHWAV[dA]HL[Nle]-NH2 (SMILES CCCC[C@H](NC(=O)[C@H](CC(C)C)NC(=O)[C@H](Cc1c[nH]cn1)NC(=O)[C@@H](C)NC(=O)[C@@H](NC(=O)[C@H](C)NC(=O)[C@H](Cc1c[nH]c2ccccc12)NC(=O)[C@H](Cc1c[nH]cn1)NC(=O)[C@H](CCC(N)=O)NC(=O)CNC(=O)COCCOCCNC(=O)COCCOCCNC(=O)CC[C@H](NC(=O)CCCCCCCCCCCCCCCCC(=O)O)C(=O)O)C(C)C)C(N)=O) [Peptide 147]	5.72 nM
{C20 diacid}-[γGlu][AEEA][AEEA]GNHWAV[dA]HL[Nle] [Peptide 148]	126 nM
{C20 diacid}-[γGlu][AEEA][AEEA]GNHWAV[dA]HL[Nle]-NH2 (SMILES CCCC[C@H](NC(=O)[C@H](CC(C)C)NC(=O)[C@H](Cc1c[nH]cn1)NC(=O)[C@@H](C)NC(=O)[C@@H](NC(=O)[C@H](C)NC(=O)[C@H](Cc1c[nH]c2ccccc12)NC(=O)[C@H](Cc1c[nH]cn1)NC(=O)[C@H](CC(N)=O)NC(=O)CNC(=O)COCCOCCNC(=O)COCCOCCNC(=O)CC[C@H](NC(=O)CCCCCCCCCCCCCCCCCCC(=O)O)C(=O)O)C(C)C)C(N)=O) [Peptide 149]	1.89 nM
{C20 diacid}-[γGlu][AEEA][AEEA]GRHWAV[dA]HL[Nle]-NH2 (SMILES CCCC[C@H](NC(=O)[C@H](CC(C)C)NC(=O)[C@H](Cc1c[nH]cn1)NC(=O)[C@@H](C)NC(=O)[C@@H](NC(=O)[C@H](C)NC(=O)[C@H](Cc1c[nH]c2ccccc12)NC(=O)[C@H](Cc1c[nH]cn1)NC(=O)[C@H](CCCNC(=N)N)NC(=O)CNC(=O)COCCOCCNC(=O)COCCOCCNC(=O)CC[C@H](NC(=O)CCCCCCCCCCCCCCCCCCC(=O)O)C(=O)O)C(C)C)C(N)=O) [Peptide 150]	4.09 nM
Palmitoyl-[d(γGlu)][AEEA][AEEA]GN[3Pal]WAV[dA]HL[Nle]-NH2 (SMILES CCCCCCCCCCCCCCCC(=O)N[C@H](CCC(=O)NCCOCCOCC(=O)NCCOCCOCC(=O)NCC(=O)N[C@@H](CC(N)=O)C(=O)N[C@@H](Cc1cccnc1)C(=O)N[C@@H](Cc1c[nH]c2ccccc12)C(=O)N[C@@H](C)C(=O)N[C@H](C(=O)N[C@H](C)C(=O)N[C@@H](Cc1c[nH]cn1)C(=O)N[C@@H](CC(C)C)C(=O)N[C@@H](CCCC)C(N)=O)C(C)C)C(=O)O) [Peptide 12]	1.8 nM
{C20 diacid}-[γGlu][AEEA][AEEA]GQHWAV[dA]HL[Nle]-NH2 (SMILES CCCC[C@H](NC(=O)[C@H](CC(C)C)NC(=O)[C@H](Cc1c[nH]cn1)NC(=O)[C@@H](C)NC(=O)[C@@H](NC(=O)[C@H](C)NC(=O)[C@H](Cc1c[nH]c2ccccc12)NC(=O)[C@H](Cc1c[nH]cn1)NC(=O)[C@H](CCC(N)=O)NC(=O)CNC(=O)COCCOCCNC(=O)COCCOCCNC(=O)CC[C@H](NC(=O)CCCCCCCCCCCCCCCCCCC(=O)O)C(=O)O)C(C)C)C(N)=O) [Peptide 151]	2.92 nM
{C18 diacid}-[γGlu][AEEA][AEEA]QHWAV[βAla]HL[Nle]-NH2 (SMILES CCCC[C@H](NC(=O)[C@H](CC(C)C)NC(=O)[C@H](Cc1c[nH]cn1)NC(=O)CCNC(=O)[C@@H](NC(=O)[C@H](C)NC(=O)[C@H](Cc1c[nH]c2ccccc12)NC(=O)[C@H](Cc1c[nH]cn1)NC(=O)[C@H](CCC(N)=O)NC(=O)COCCOCCNC(=O)COCCOCCNC(=O)CC[C@H](NC(=O)CCCCCCCCCCCCCCCCC(=O)O)C(=O)O)C(C)C)C(N)=O) [Peptide 152]	3.9 nM
{C20 diacid}-[γGlu]GRHWAV[dA]HL[Nle]-NH2 (SMILES CCCC[C@H](NC(=O)[C@H](CC(C)C)NC(=O)[C@H](Cc1c[nH]cn1)NC(=O)[C@@H](C)NC(=O)[C@@H](NC(=O)[C@H](C)NC(=O)[C@H](Cc1c[nH]c2ccccc12)NC(=O)[C@H](Cc1c[nH]cn1)NC(=O)[C@H](CCCNC(=N)N)NC(=O)CNC(=O)CC[C@H](NC(=O)CCCCCCCCCCCCCCCCCCC(=O)O)C(=O)O)C(C)C)C(N)=O) [Peptide 153]	2.87 nM
{C20 diacid}-[γGlu]RNHWAV[dA]HL[Nle]-NH2 (SMILES CCCC[C@H](NC(=O)[C@H](CC(C)C)NC(=O)[C@H](Cc1c[nH]cn1)NC(=O)[C@@H](C)NC(=O)[C@@H](NC(=O)[C@H](C)NC(=O)[C@H](Cc1c[nH]c2ccccc12)NC(=O)[C@H](Cc1c[nH]cn1)NC(=O)[C@H](CC(N)=O)NC(=O)[C@H](CCCNC(=N)N)NC(=O)CC[C@H](NC(=O)CCCCCCCCCCCCCCCCCCC(=O)O)C(=O)O)C(C)C)C(N)=O) [Peptide 154]	7.09 nM
{C20 diacid}-[γGlu]RNHWAV[dA]HL[Nle] [Peptide 155]	132 nM
{C18 diacid}-[γGlu][AEEA][AEEA]RNHWAV[dA]HL[Nle] [Peptide 156]	358 nM
{C18 diacid}-[γGlu][AEEA][AEEA]RRHWAV[dA]HL[Nle] [Peptide 157]	161 nM
{C20 diacid}-[γGlu]RRHWAV[dA]HL[Nle]-NH2 (SMILES CCCC[C@H](NC(=O)[C@H](CC(C)C)NC(=O)[C@H](Cc1c[nH]cn1)NC(=O)[C@@H](C)NC(=O)[C@@H](NC(=O)[C@H](C)NC(=O)[C@H](Cc1c[nH]c2ccccc12)NC(=O)[C@H](Cc1c[nH]cn1)NC(=O)[C@H](CCCNC(=N)N)NC(=O)[C@H](CCCNC(=N)N)NC(=O)CC[C@H](NC(=O)CCCCCCCCCCCCCCCCCCC(=O)O)C(=O)O)C(C)C)C(N)=O) [Peptide 158]	1.68 nM
